Measurements reported in IntAct's records for PubMed 31515488.

B1: CDK5 regulatory subunit-associated protein 3 (Homo sapiens), Q96JB5 (parent)
chain: MEDHQHVPIDIQTSKLLDWLVDRRHCSLKWQSLVLTIREKINAAIQDMPESEEIAQLLSGSYIHYFHCLRILDLLKGTEASTKNIFGRYSSQRMKDWQEIIALYEKDNTYLVELSSLLVRNVNYEIPSLKKQIAKCQQLQQEYSRKEEECQAGAAEMREQFYHSCKQYGITGENVRGELLALVKDLPSQLAEIGAAAQQSLGEAIDVYQASVGFVCESPTEQVLPMLRFVQKRGNSTVYEWRTGTEPSVVERPHLEELPEQVAEDAIDWGDFGVEAVSEGTDSGISAEAAGIDWGIFPESDSKDPGGDGIDWGDDAVALQITVLEAGTQAPEGVARGPDALTLLEYTETRNQFLDELMELEIFLAQRAVELSEEADVLSVSQFQLAPAILQGQTKEKMVTMVSVLEDLIGKLTSLQLQHLFMILASPRYVDRVTEFLQQKLKQSQLLALKKELMVQKQQEALEEQAALEPKLDLLLEKTKELQKLIEADISKRYSGRPVNLMGTSL
partner: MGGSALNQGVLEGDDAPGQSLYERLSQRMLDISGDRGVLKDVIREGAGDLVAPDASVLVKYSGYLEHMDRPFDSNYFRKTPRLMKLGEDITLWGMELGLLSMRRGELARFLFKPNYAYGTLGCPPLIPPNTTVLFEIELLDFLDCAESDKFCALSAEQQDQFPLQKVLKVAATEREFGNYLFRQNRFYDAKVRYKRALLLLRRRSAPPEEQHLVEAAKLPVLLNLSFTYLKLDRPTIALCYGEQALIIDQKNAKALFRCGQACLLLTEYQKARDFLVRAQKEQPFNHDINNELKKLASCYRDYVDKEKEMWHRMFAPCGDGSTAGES
B2: Kinesin-associated protein 3 (Homo sapiens), Q92845 (parent)
chain: MQGEDARYLKRKVKGGNIDVHPSEKALIVHYEVEATILGEMGDPMLGERKECQKIIRLKSLNANTDITSLARKVVEECKLIHPSKLNEVEQLLYYLQNRRDSLSGKEKKEKSSKPKDPPPFEGMEIDEVANINDMDEYIELLYEDIPDKVRGSALILQLARNPDNLEELLLNETALGALARVLREDWKQSVELATNIIYIFFCFSSFSQFHGLITHYKIGALCMNIIDHELKRHELWQEELSKKKKAVDEDPENQTLRKDYEKTFKKYQGLVVKQEQLLRVALYLLLNLAEDTRTELKMRNKNIVHMLVKALDRDNFELLILVVSFLKKLSIFMENKNDMVEMDIVEKLVKMIPCEHEDLLNITLRLLLNLSFDTGLRNKMVQVGLLPKLTALLGNDNYKQIAMCVLYHISMDDRFKSMFAYTDCIPQLMKMLFECSDERIDLELISFCINLAANKRNVQLICEGNGLKMLMKRALKFKDPLLMKMIRNISQHDGPTKNLFIDYVGDLAAQISNDEEEEFVIECLGTLANLTIPDLDWELVLKEYKLVPYLKDKLKPGAAEDDLVLEVVIMIGTVSMDDSCAALLAKSGIIPALIELLNAQQEDDEFVCQIIYVFYQMVFHQATRDVIIKETQAPAYLIDLMHDKNNEIRKVCDNTLDIIAEYDEEWAKKIQSEKFRWHNSQWLEMVESRQMDESEQYLYGDDRIEPYIHEGDILERPDLFYNSDGLIASEGAISPDFFNDYHLQNGDVVGQHSFPGSLGMDGFGQPVGILGRPATAYGFRPDEPYYYGYGS
partner: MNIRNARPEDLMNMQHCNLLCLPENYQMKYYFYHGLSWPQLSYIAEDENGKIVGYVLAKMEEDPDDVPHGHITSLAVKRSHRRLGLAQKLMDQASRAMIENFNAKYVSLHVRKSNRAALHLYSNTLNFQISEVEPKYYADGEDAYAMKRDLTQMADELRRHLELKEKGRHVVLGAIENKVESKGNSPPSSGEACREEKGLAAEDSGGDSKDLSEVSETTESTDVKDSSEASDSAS
B3: Zinc finger protein Aiolos (Homo sapiens), Q9UKT9 (parent)
chain: MEDIQTNAELKSTQEQSVPAESAAVLNDYSLTKSHEMENVDSGEGPANEDEDIGDDSMKVKDEYSERDENVLKSEPMGNAEEPEIPYSYSREYNEYENIKLERHVVSFDSSRPTSGKMNCDVCGLSCISFNVLMVHKRSHTGERPFQCNQCGASFTQKGNLLRHIKLHTGEKPFKCHLCNYACQRRDALTGHLRTHSVEKPYKCEFCGRSYKQRSSLEEHKERCRTFLQSTDPGDTASAEARHIKAEMGSERALVLDRLASNVAKRKSSMPQKFIGEKRHCFDVNYNSSYMYEKESELIQTRMMDQAINNAISYLGAEALRPLVQTPPAPTSEMVPVISSMYPIALTRAEMSNGAPQELEKKSIHLPEKSVPSERGLSPNNSGHDSTDTDSNHEERQNHIYQQNHMVLSRARNGMPLLKEVPRSYELLKPPPICPRDSVKVINKEGEVMDVYRCDHCRVLFLDYVMFTIHMGCHGFRDPFECNMCGYRSHDRYEFSSHIARGEHRALLK
partner: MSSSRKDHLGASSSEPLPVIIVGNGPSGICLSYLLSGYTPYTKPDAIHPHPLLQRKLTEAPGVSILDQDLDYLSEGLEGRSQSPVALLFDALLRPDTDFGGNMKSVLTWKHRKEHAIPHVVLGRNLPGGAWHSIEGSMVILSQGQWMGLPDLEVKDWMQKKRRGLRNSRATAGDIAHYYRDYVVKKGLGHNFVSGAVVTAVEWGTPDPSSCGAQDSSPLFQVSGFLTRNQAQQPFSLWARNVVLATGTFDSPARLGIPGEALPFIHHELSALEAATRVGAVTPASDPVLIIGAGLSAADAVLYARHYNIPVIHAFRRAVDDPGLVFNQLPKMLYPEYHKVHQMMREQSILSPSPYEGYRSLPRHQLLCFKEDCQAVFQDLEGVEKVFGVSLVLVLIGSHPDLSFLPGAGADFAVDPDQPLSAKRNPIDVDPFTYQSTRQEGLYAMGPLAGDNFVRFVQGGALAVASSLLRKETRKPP
B4: Microtubule-associated tumor suppressor candidate 2 (Homo sapiens), Q5JR59-3 (parent)
chain: MGHCCCKPYNCLQCLDKTNESALVKEKELSIELANIRDEVAFHTAKCEKLQKEKEELERRFEDEVKRLGWQQQAELQELEERLQLQFEAEMARLQEEHGDQLLSIRCQHQEQVEDLTASHDAALLEMENNHTVAITILQDDHDHKVQELMSTHELEKKELEENFEKLRLSLQDQVDTLTFQSQSLRDRARRFEEALRKNTEEQLEIALAPYQHLEEDMKSLKQVLEMKNQQIHEQEKKILELEKLAEKNIILEEKIQVLQQQNEDLKARIDQNTVVTRQLSEENANLQEYVEKETQEKKRLSRTNEELLWKLQTGDPTSPIKLSPTSPVYRGSSSGPSSPARVSTTPR
partner: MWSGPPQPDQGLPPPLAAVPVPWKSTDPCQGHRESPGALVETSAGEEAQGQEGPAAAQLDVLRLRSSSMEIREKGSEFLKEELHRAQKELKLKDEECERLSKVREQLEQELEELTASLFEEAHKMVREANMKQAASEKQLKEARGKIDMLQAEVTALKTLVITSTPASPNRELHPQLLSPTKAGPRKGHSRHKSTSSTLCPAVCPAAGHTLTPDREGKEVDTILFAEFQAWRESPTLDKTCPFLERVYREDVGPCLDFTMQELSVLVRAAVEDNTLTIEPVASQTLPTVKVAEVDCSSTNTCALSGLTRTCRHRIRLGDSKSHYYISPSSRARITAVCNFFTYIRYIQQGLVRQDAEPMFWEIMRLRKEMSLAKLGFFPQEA

Variants of: B1
Conditions: with fkbp6_human FKBP6, O75344

| effect of a mutation on the interaction | Variant |
| --- | --- |
| with no effect | E173K |

Variants of: B2
Conditions: with naa10_human NAA10, P41227

| effect of a mutation on the interaction | Variant |
| --- | --- |
| with no effect | E167K |
| with no effect | F434C |

Variants of: B3
Conditions: with osgi1_human OSGIN1, Q9UJX0

| effect of a mutation on the interaction | Variant |
| --- | --- |
| with no effect | N119D |
| with no effect | A24V |

Variants of: B4
Conditions: with RAB3IL1, Q8TBN0

| effect of a mutation on the interaction | Variant |
| --- | --- |
| with no effect | A89V |
